# Patent publication US5686592
# How the values were obtained:
# Assay in all cases: filter
# [1] = system: human IgE (Homo sapiens), P01854-1
# mouse IgE (Mus musculus) = molecular target: T1, mouse IgE (Mus musculus) (UniProt P06336)
# T1 sequence: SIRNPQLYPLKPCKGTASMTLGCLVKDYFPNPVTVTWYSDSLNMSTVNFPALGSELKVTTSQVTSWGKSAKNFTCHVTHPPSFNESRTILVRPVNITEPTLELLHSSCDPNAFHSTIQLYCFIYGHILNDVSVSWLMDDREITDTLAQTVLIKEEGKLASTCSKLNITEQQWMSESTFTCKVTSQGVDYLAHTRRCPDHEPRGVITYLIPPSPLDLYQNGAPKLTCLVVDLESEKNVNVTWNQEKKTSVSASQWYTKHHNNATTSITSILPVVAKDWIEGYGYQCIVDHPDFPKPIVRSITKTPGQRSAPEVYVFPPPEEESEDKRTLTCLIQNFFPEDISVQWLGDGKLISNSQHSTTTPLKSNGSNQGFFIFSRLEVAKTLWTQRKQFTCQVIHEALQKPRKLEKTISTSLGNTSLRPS
# [2] = molecular target: T2, rat IgE (Rattus norvegicus) (UniProt P01855); settings: 2'-NH2 on all C and U; specificity control
# T2 sequence: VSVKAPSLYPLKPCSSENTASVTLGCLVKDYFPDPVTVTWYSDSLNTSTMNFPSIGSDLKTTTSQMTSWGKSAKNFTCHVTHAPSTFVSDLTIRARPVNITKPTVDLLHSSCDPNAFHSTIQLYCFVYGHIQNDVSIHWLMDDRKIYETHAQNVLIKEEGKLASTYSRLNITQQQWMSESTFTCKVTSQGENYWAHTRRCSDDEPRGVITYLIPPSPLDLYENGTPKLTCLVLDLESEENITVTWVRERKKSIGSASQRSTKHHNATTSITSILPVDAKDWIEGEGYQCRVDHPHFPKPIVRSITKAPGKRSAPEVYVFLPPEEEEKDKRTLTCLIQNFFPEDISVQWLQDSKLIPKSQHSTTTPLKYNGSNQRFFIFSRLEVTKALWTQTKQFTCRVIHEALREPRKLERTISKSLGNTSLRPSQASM
# human IgG (Homo sapiens) = settings: specificity control
# [3] = 2'-NH2 on all C and U, specificity control
# [4] = 2'-NH2 on all C and U, starting pool
# Chain of human IgE (Homo sapiens), P01854-1 (P01854 other isoform, or with tags, fused parts or gaps): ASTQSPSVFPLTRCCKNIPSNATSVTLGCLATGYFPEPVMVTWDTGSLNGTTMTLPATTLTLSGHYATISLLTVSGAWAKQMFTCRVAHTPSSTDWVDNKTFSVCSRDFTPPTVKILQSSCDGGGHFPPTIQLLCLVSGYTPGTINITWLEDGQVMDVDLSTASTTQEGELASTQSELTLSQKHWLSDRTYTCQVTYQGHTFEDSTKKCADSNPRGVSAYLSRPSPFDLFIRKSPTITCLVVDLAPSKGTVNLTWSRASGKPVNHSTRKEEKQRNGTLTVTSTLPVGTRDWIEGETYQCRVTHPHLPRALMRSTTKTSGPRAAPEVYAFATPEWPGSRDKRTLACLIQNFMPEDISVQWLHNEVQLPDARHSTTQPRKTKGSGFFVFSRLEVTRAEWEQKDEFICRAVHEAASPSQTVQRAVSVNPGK
sequence,measurement,setting,value
CTACCTACGATCTGACTAGCNNNNNNNNNNNNNNNNNNNNNNNNNNNNNNNNNNNNNNNNGCTTACTCTCATGTAGTTCC [40NBHI starting DNA pool],Kd,[1]; starting pool,> 50 µM
same,Kd,mouse IgE (Mus musculus); starting pool,> 1 µM
CTACCTACGATCTGACTAGCNNNNNNNNNNNNNNNNNNNNNNNNNNNNNNNNNNNNNNNNGCTTACTCTCATGTAGTTCC [Round 15 human IgE DNA pool],Kd,"[1]; enriched pool, modified PBS, 1 mM Mg2+, 37 C",0.01 µM
CTACCTACGATCTGACTAGCNNNNNNNNNNNNNNNNNNNNNNNNNNNNNNNNNNNNNNNNGCTTACTCTCATGTAGTTCC [Round 15 mouse IgE DNA pool],Kd,[1]; mouse-IgE-enriched pool against human IgE,> 50 µM
same,Kd,mouse IgE (Mus musculus); enriched pool,0.02 µM
GGGAGGACGAUGCGGGUGUGAAUGGUGUUGUGAGG [IGEL1.2],Kd,mouse IgE (Mus musculus); [3],> 5 µM
same,Kd,[2],> 5 µM
GGGAGGACGAUGCGGGUGUGGGGCG [IGEL2.2],Kd,mouse IgE (Mus musculus); [3],> 5 µM
same,Kd,[2],> 5 µM
GGGAGGACGAUGCGGNNNNNNNNNNNNNNNNNNNNNNNNNNNNNNNNNNNNNNNNCAGACGACUCGCCCGA [40N7 starting RNA pool],Kd,[1]; [4],> 50 µM
GGGAGGACGAUGCGGNNNNNNNNNNNNNNNNNNNNNNNNNNNNNNNNNNNNNNNNNNNNNNNNNNNNNNNNNNNNCAGACGACUCGCCCGA [60N7 starting RNA pool],Kd,[1]; [4],> 50 µM
GGGGCACGTTTATCCGTCCCTCCTAGTGGCGTGCCCC [D17.4],Kd,human IgG (Homo sapiens),> 10 µM
same,Kd,mouse IgE (Mus musculus); specificity control,> 10 µM
